The record followed here is publication PMC5399559 (2017).

The target of assay [1] is taxol-stabilized microtubules (MTs). As to the kind of experiment: 200 mM KCl.
For assay [2] the target is unchanged. As to the kind of experiment: 30 mM KCl.
Assay [3] has the same target. Put plainly: 100 mM KCl.

Chain of taxol-stabilized microtubules (MTs) (chain, as listed by the source, chain 1 of 2): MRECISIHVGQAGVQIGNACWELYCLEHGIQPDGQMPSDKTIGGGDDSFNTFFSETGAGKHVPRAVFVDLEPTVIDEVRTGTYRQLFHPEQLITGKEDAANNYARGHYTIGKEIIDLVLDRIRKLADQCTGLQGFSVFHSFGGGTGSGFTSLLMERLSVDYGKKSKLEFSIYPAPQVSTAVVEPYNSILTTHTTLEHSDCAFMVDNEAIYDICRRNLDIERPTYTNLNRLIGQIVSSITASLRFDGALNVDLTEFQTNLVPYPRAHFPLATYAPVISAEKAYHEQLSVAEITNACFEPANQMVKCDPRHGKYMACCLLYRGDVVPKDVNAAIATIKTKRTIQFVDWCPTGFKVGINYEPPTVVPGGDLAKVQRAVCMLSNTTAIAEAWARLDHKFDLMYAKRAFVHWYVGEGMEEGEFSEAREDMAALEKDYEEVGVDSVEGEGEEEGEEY
Chain of taxol-stabilized microtubules (MTs) (chain, as listed by the source, chain 2 of 2): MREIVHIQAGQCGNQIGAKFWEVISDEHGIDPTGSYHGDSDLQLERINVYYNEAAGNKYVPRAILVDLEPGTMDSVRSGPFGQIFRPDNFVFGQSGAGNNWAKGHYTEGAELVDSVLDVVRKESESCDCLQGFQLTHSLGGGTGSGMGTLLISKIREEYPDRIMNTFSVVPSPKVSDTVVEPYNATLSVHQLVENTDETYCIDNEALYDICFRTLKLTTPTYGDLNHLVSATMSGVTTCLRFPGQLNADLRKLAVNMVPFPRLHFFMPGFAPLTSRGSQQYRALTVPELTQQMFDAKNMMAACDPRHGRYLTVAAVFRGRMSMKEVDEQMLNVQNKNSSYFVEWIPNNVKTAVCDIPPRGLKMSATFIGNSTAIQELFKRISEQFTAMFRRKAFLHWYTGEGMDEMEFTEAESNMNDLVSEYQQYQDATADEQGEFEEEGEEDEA

B1: MBP-Kif18A^tail-His6 (tail of Xl_Kif18A, aa 846-953) (domain or fragment)
chain: PSYMAMTSAAERKRKLLSLAGNSAVKEDSVPLPTAKRVRQDIALDCKALRVQRVAAGTTRSKDNCARRRLPKSVSEGALGVKTKPFSFQGSAQLLFQGGKKKAALKDP
Regarding B1, the Kd (commonly the equilibrium constant for the complex coming apart) was determined as 3010 nM in assay [1], 340 nM in assay [2] and 770 nM in assay [3].
